In patent US20260365739 (published 2026):

B1: EG2 (antibody, V domains shown)
VH: QVQLVESGGGLVQAGDSLRVSCAASGRDFSDYVMGWFRQAPGKEREFVAAISRNGLTTRYADSVKGRFTISRDNDKNMVYLQMNSLKPEDTAVYYCAVNSAGTYVSPRSREYDYWGQGTQVTVSS
B2: IGF1R4_22_88 (antibody, V domains shown)
VH: QVKLEESGGGLVQAGGSLRLCCEVSGGTVSPTAMGWFRQAPGKEREFVGHITWSRGTTRVASSVKDRFTISRDSAKNTVCLQMNSLKSEDTAVYYCAASTFLRILPEESAYTYWGQGTQVTVSS
B3: EG2_22_88 (antibody, V domains shown)
VH: QVQLVESGGGLVQAGDSLRVCCAASGRDFSDYVMGWFRQAPGKEREFVAAISRNGLTTRYADSVKGRFTISRDNDKNMVCLQMNSLKPEDTAVYYCAVNSAGTYVSPRSREYDYWGQGTQVTVSS
B4: EG2_24_86 (antibody, V domains shown)
VH: QVQLVESGGGLVQAGDSLRVSCCASGRDFSDYVMGWFRQAPGKEREFVAAISRNGLTTRYADSVKGRFTISRDNDKNCVYLQMNSLKPEDTAVYYCAVNSAGTYVSPRSREYDYWGQGTQVTVSS
B5: IGF1R3_6_119 (designed binder)
chain: QVKLECSGGGLVQAGGSLRLSCVASEYPSNFYAMSWFRQAPGKEREFVAGVSRDGLTTLYADSVKGRFTMSRDNAKNTVDLQMNSVKAEDTAVYYCAIVITGVWNKVDVNSRSYHYWCQGTQVTVSS
B6: EG2_4_25 (antibody, V domains shown)
VH: QVQCVESGGGLVQAGDSLRVSCACSGRDFSDYVMGWFRQAPGKEREFVAAISRNGLTTRYADSVKGRFTISRDNDKNMVYLQMNSLKPEDTAVYYCAVNSAGTYVSPRSREYDYWGQGTQVTVSS
B7: IGF1R4_24_86 (antibody, V domains shown)
VH: QVKLEESGGGLVQAGGSLRLSCCVSGGTVSPTAMGWFRQAPGKEREFVGHITWSRGTTRVASSVKDRFTISRDSAKNCVYLQMNSLKSEDTAVYYCAASTFLRILPEESAYTYWGQGTQVTVSS
B8: IGF1R3_4_25 (antibody, V domains shown)
VH: QVKCEESGGGLVQAGGSLRLSCVCSEYPSNFYAMSWFRQAPGKEREFVAGVSRDGLTTLYADSVKGRFTMSRDNAKNTVDLQMNSVKAEDTAVYYCAIVITGVWNKVDVNSRSYHYWGQGTQVTVSS
B9: IGF1R3 (antibody, V domains shown)
VH: QVKLEESGGGLVQAGGSLRLSCVASEYPSNFYAMSWFRQAPGKEREFVAGVSRDGLTTLYADSVKGRFTMSRDNAKNTVDLQMNSVKAEDTAVYYCAIVITGVWNKVDVNSRSYHYWGQGTQVTVSS
B10: IGF1R4_4_25 (antibody, V domains shown)
VH: QVKCEESGGGLVQAGGSLRLSCECSGGTVSPTAMGWFRQAPGKEREFVGHITWSRGTTRVASSVKDRFTISRDSAKNTVYLQMNSLKSEDTAVYYCAASTFLRILPEESAYTYWGQGTQVTVSS
B11: IGF1R4 (antibody, V domains shown)
VH: QVKLEESGGGLVQAGGSLRLSCEVSGGTVSPTAMGWFRQAPGKEREFVGHITWSRGTTRVASSVKDRFTISRDSAKNTVYLQMNSLKSEDTAVYYCAASTFLRILPEESAYTYWGQGTQVTVSS
B12: IGF1R5_4_25 (antibody, V domains shown)
VH: QVKCEESGGGLVQAGGSLRLSCACSGRTIDNYAMAWSRQAPGKDREFVATIDWGDGGARYANSVKGRFTISRDNAKGTMYLQMNNLEPEDTAVYSCAMARQSRVNLDVARYDYWGQGTQVTVSS
B13: EG2_6_119 (designed binder)
chain: QVQLVCSGGGLVQAGDSLRVSCAASGRDFSDYVMGWFRQAPGKEREFVAAISRNGLTTRYADSVKGRFTISRDNDKNMVYLQMNSLKPEDTAVYYCAVNSAGTYVSPRSREYDYWCQGTQVTVSS
B14: IGF1R4_6_119 (designed binder)
chain: QVKLECSGGGLVQAGGSLRLSCEVSGGTVSPTAMGWFRQAPGKEREFVGHITWSRGTTRVASSVKDRFTISRDSAKNTVYLQMNSLKSEDTAVYYCAASTFLRILPEESAYTYWCQGTQVTVSS
B15: IGF1R3_22_88 (antibody, V domains shown)
VH: QVKLEESGGGLVQAGGSLRLCCVASEYPSNFYAMSWFRQAPGKEREFVAGVSRDGLTTLYADSVKGRFTMSRDNAKNTVCLQMNSVKAEDTAVYYCAIVITGVWNKVDVNSRSYHYWGQGTQVTVSS
B16: IGF1R5_22_88 (antibody, V domains shown)
VH: QVKLEESGGGLVQAGGSLRLCCAASGRTIDNYAMAWSRQAPGKDREFVATIDWGDGGARYANSVKGRFTISRDNAKGTMCLQMNNLEPEDTAVYSCAMARQSRVNLDVARYDYWGQGTQVTVSS
B17: IGF1R3_24_86 (antibody, V domains shown)
VH: QVKLEESGGGLVQAGGSLRLSCCASEYPSNFYAMSWFRQAPGKEREFVAGVSRDGLTTLYADSVKGRFTMSRDNAKNCVDLQMNSVKAEDTAVYYCAIVITGVWNKVDVNSRSYHYWGQGTQVTVSS
B18: IGF1R5 (antibody, V domains shown)
VH: QVKLEESGGGLVQAGGSLRLSCAASGRTIDNYAMAWSRQAPGKDREFVATIDWGDGGARYANSVKGRFTISRDNAKGTMYLQMNNLEPEDTAVYSCAMARQSRVNLDVARYDYWGQGTQVTVSS

Key:
[1] = molecular target: EGFR (human, UniProt P00533); experiment: SPR
[2] = molecular target: IGF1R (human, UniProt P08069); experiment: SPR
Sequence of IGF1R (P08069 31-932): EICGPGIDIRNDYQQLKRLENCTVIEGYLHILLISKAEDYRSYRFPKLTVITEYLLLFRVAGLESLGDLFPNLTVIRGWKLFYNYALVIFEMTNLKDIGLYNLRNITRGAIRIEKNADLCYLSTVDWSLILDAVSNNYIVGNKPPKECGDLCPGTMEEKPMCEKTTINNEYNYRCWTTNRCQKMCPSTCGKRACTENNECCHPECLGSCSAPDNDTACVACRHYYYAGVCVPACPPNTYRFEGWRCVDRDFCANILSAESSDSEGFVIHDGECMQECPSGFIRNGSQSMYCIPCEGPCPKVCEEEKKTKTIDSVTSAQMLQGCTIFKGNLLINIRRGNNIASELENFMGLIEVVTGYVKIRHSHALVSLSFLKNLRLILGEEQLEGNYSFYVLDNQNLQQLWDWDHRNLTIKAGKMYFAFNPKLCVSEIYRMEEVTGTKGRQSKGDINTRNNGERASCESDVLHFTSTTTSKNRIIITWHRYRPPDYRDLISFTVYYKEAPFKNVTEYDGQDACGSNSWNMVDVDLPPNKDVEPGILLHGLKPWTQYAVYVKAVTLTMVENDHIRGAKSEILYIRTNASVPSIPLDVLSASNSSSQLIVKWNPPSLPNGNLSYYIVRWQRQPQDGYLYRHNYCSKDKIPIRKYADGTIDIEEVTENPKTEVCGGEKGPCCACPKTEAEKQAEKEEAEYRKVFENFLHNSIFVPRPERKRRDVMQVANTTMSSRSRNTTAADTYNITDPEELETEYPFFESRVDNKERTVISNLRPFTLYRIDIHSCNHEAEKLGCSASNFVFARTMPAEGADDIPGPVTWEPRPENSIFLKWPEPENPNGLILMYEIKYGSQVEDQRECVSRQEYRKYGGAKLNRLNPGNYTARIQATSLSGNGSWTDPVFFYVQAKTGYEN

Binder	Kd [1]	Kd [2]
B1	14.6 nM	–
B2	–	0.5 nM
B3	47.2 nM	–
B4	62.5 nM	–
B5	–	1.4 nM
B6	10.6 nM	–
B7	–	1.1 nM
B8	–	2.3 nM
B9	–	0.9 nM
B10	–	0.5 nM
B11	–	0.3 nM
B12	–	0.8 nM
B13	25.7 nM	–
B14	–	0.3 nM
B15	–	0.8 nM
B16	–	1.4 nM
B17	–	5.3 nM
B18	–	1.1 nM
